The values that follow are results of earlier work, collected in publication PMC4310935.

This data set concerns the target GLP-1 receptor (Mus musculus) (UniProt O35659).
Chain of UniProt O35659 (O35659 22-463): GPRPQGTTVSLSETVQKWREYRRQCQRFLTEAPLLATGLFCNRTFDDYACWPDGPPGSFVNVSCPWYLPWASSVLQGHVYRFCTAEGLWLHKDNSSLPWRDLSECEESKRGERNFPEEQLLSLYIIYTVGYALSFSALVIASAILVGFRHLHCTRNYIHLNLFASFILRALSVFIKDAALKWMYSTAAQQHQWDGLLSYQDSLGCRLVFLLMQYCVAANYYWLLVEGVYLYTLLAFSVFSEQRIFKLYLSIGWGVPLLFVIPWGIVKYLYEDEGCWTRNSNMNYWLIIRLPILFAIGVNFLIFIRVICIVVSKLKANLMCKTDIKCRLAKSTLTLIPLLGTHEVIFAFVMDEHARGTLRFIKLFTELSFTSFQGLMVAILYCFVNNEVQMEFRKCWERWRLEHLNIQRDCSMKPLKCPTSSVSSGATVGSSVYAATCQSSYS

Chain of GLP-1 (P55095 98-127): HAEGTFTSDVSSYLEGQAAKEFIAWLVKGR

On to GLP-1 (from UniProt P55095), for which the dissociation constant Kd was 500 pM.
